Measurements published in paper PMC12316308, “Interactions of substrates and phosphinyl containing inhibitors with bacterial and human zinc proteases” (PLOS One, 2025).
The star is where a group is joined. Dnp = O=[N+]([O-])c1ccc(*)c([N+](=O)[O-])c1; Mca = COc1ccc2c(CC(=O)*)cc(=O)oc2c1

Key:
ALN [1] = target: T1, ALN (Staphylococcus aureus, UniProt P81177); settings: 1% DMSO, less certain due to substrate quenching above 10 µM; cited from earlier work
thermolysin (TLN) = target: T2, thermolysin (TLN) (Bacillus thermoproteolyticus, UniProt P00800); assay: MALDI-TOF MS analysis of ES005 cleavage; format: biochemical; settings: 50 µM ES005, 10 nM TLN, 5 minutes, 37°C
T2 construct: purchased Calbiochem (San Diego, CA, USA)
Experimental: MALDI-TOF MS spectra were recorded for samples containing different enzyme and substrate concentrations at various time points using an Autoflex Speed instrument (Bruker Daltonik GmbH, Leipzig, Germany) equipped with a 355-nm nitrogen laser for desorption and ionization. The ionization matrix, HCCA, was dissolved to 10 mg/mL in a standard solvent (50% MeCN, 47.5% MQ-water, and 2.5% TFA) by vigorous vortexing. Prior to the MALDI run, a main buffer (0.1 M Hepes, pH 7.5, 10 mM CaCl2) was used to dilute TLN to stock concentrations of 1000, 100 and 50 nM, ES005–500 µM, and galardin to 10 µM. All stocks solutions were kept on ice. For the 0 min incubation, 1 µL TLN and 1 µL galardin were preincubated at 37°C in 8 µL of the main buffer for 10 min before adding 1 µL of ES005. For all other time points, 1 µL of ES005 was added to tubes containing 8 µL buffer and 1 µL of TLN at different concentrations, followed by incubation at 37°C. At each timepoint (0, 1, 3, 5, 10, 20, 30, 60, 120 min), 1 µL of galardin was added to stop enzyme activity. After the final incubation, 1 µL aliquots from each timepoint were mixed with an equal volume of HCCA and spotted onto a MALDI plate. […] The resulting mass spectra were analysed using flexAnalysis software (v3.3, Bruker).

TLN [2] = target: T3, TLN (Bacillus thermoproteolyticus, UniProt P00800); settings: 1% DMSO; cited from earlier work
T3 sequence (P00800 233-548): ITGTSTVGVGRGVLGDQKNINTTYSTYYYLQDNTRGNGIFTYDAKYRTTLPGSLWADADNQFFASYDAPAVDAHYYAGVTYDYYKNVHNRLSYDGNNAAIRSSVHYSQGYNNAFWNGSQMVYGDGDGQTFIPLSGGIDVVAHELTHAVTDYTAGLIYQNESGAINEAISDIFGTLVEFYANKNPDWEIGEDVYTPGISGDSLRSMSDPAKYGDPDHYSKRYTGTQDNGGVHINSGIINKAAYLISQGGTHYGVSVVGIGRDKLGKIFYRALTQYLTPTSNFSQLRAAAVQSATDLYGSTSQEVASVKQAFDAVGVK

PLN [3] = target: T4, PLN (Pseudomonas aeruginosa, UniProt P14756); settings: 1% DMSO, less certain due to substrate quenching above 10 µM; cited from earlier work
T4 sequence (P14756 198-498): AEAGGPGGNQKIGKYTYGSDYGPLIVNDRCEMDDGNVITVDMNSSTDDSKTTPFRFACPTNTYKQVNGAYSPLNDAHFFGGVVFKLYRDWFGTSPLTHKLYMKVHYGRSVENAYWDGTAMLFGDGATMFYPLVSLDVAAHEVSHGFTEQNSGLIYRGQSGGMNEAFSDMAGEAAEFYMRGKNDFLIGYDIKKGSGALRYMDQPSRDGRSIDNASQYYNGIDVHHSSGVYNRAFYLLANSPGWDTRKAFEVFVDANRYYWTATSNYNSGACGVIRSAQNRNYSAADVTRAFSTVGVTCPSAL

TLN [4] = target: T3, TLN; assay: Enzymatic activity against ES001 and ES005; format: biochemical; set-up: purchased Calbiochem (San Diego, CA, USA); settings: 10 µM substrate, DMSO omitted, n = 4
Experimental: (§1) Determination of reaction velocities. The substrate ES001 was used for APMA activated MMP-9 (MMP-9(A)), Mag-Trypsin activated MMP-9 (MMP-9(MT)) and MMP-14, while the substrate ES005 was used for ALN, PLN and TLN. The reaction velocities/initial rates (v) were determined at 37°C, at an excitation wavelength of 320 nm and an emission wavelength of 405 nm with a slit width of 10 nm using either a Perkin Elmer LS 50 Luminescence spectrometer and the FL WinLab Software Package (Perkin Elmer) or a Clario Star micro plate reader (CLARIOstar® BMG LABTECH).
(§2) To compare the activity of these enzymes against ES001 and ES005 assays were conducted using the same assay condition for all enzymes. The differences from the testing of phosphinic compounds described in the Material and Methods section were that DMSO was omitted, and the concentration of both substrates was 10 µM. A Perkin Elmer LS50 Luminescence Spectrometer was used to measure the activity. Reactions were monitor for one minute, and initial reaction velocities were determined from the activity curves. For each enzyme, the reaction with the presumed optimal substrate was performed first at an arbitrary enzyme concentration, followed immediately by the reaction with the alternate substrate using the same enzyme concentration.

PLN [5] = target: T4, PLN; format: biochemical; set-up: purchased Calbiochem (San Diego, CA, USA)
Experimental: as §1, §2

MMP-9(MT) = target: T5, MMP-9(MT) (Homo sapiens, UniProt P14780); assay: Enzymatic activity against ES001 and ES005; format: biochemical; settings: 10 µM substrate, DMSO omitted, n = 4
T5 construct: made in house; host or cells: Sf9 and High Five insect cells
T5 sequence (P14780 107-707 limits assumed): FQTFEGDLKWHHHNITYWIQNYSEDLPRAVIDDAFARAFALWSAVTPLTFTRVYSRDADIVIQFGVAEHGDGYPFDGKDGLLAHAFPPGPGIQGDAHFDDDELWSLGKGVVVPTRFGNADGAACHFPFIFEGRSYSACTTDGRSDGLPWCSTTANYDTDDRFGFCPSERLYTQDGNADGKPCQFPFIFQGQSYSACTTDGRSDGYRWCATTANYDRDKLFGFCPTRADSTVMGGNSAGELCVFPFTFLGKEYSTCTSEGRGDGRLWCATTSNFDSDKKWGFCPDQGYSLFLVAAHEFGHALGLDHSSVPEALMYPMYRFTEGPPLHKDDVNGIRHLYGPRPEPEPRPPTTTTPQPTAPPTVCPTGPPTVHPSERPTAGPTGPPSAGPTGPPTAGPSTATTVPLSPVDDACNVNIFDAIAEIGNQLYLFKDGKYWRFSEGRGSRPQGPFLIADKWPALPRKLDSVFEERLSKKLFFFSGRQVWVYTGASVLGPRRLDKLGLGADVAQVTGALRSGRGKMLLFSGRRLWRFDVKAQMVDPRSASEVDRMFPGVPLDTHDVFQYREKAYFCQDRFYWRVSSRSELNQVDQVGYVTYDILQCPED
Experimental: as §1, §2

MMP-9(A) = target: T6, MMP-9(A) (Homo sapiens, UniProt P14780); assay: Enzymatic activity against ES001 and ES005; format: biochemical; settings: 10 µM substrate, DMSO omitted, n = 4
T6 construct: made in house; host or cells: Sf9 and High Five insect cells
T6 sequence (P14780 107-707 limits assumed): as above
Experimental: as §1, §2

MMP-14 = target: T7, MMP-14 (Homo sapiens, UniProt P50281); assay: Enzymatic activity against ES001 and ES005; format: biochemical; settings: 10 µM substrate, DMSO omitted, n = 4
T7 construct: human MT1-MMP/MMP-14 (catalytic domain); purchased Calbiochem (San Diego, CA, USA)
Experimental: as §1, §2

ALN [6] = target: T1, ALN; format: biochemical; set-up: purchased BioCentrum Ltd (Kraków, Poland)
Experimental: as §1, §2

[7] = 10 µM substrate, DMSO omitted, n = 4

T1 sequence (P81177 209-509): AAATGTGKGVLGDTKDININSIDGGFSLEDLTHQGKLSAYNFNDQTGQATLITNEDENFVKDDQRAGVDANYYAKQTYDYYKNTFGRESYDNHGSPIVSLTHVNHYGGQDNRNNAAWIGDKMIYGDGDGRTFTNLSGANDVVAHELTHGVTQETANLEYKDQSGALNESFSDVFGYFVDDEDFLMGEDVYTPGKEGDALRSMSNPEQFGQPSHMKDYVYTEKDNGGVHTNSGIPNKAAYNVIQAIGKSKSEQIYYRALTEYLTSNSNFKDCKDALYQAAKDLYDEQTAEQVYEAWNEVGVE

Mca-Arg-Pro-Pro-Gly-Phe-Ser-Ala-Phe-Lys(Dnp)-OH (Mca-RPPGFSAFK(Dnp)-OH; SMILES COc1ccc2c(CC(=O)N[C@@H](CCCNC(=N)N)C(=O)N3CCC[C@H]3C(=O)N3CCC[C@H]3C(=O)NCC(=O)N[C@@H](Cc3ccccc3)C(=O)N[C@@H](CO)C(=O)N[C@@H](C)C(=O)N[C@@H](Cc3ccccc3)C(=O)N[C@@H](CCCCNc3ccc([N+](=O)[O-])cc3[N+](=O)[O-])C(=O)O)cc(=O)oc2c1) [ES005, fluorescence quenched bradykinin like substrate used for TLN, PLN and ALN]
Km (ALN [1]): 76 ± 7 µM | cleavage sites (MALDI-TOF MS) (thermolysin (TLN)): cleaved at three sites: Gly-Phe (m/z 642), Ser-Ala (m/z 876), and Ala-Phe (m/z 947) | Km (TLN [2]): 6 ± 1 µM | Km (PLN [3]): 24 ± 8 µM | Enzymatic activity (TLN [4]): 326 ± 36 ΔF/min | higher activity for ES005 than ES001 (PLN [5]): approximately 15 fold | Enzymatic activity (PLN [5]; [7]): 138 ± 4 ΔF/min | Enzymatic activity (MMP-9(MT)): 18 ± 8 ΔF/min | Enzymatic activity (MMP-9(A)): 5.1 ± 0.2 ΔF/min | Enzymatic activity (MMP-14): 8 ± 2 ΔF/min | higher activity for ES005 than ES001 (ALN [6]): ~5 fold | Enzymatic activity (ALN [6]; [7]): 354 ± 61 ΔF/min
